Reference: PMC5159498 (2016)
Where a chain is given by its changes, count along the chain named. Numbers in names are those of the source.

B1: CDC42 (aa 1-178) (domain or fragment)
chain: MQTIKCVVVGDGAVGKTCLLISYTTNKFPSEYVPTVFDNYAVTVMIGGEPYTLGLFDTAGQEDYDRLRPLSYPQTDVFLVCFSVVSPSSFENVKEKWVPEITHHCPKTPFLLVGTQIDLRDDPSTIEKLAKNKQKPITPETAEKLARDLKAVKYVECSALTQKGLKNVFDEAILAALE
B2: IQGAP1 GRD1-CT (aa 863-1657) (domain or fragment)
chain: DPPMVVVRKFVHLLDQSDQDFQEELDLMKMREEVITLIRSNQQLENDLNLMDIKIGLLVKNKITLQDVVSHSKKLTKKNKEQLSDMMMINKQKGGLKALSKEKREKLEAYQHLFYLLQTNPTYLAKLIFQMPQNKSTKFMDSVIFTLYNYASNQREEYLLLRLFKTALQEEIKSKVDQIQEIVTGNPTVIKMVVSFNRGARGQNALRQILAPVVKEIMDDKSLNIKTDPVDIYKSWVNQMESQTGEASKLPYDVTPEQALAHEEVKTRLDSSIRNMRAVTDKFLSAIVSSVDKIPYGMRFIAKVLKDSLHEKFPDAGEDELLKIIGNLLYYRYMNPAIVAPDAFDIIDLSAGGQLTTDQRRNLGSIAKMLQHAASNKMFLGDNAHLSIINEYLSQSYQKFRRFFQTACDVPELQDKFNVDEYSDLVTLTKPVIYISIGEIINTHTLLLDHQDAIAPEHNDPIHELLDDLGEVPTIESLIGESSGNLNDPNKEALAKTEVSLTLTNKFDVPGDENAEMDARTILLNTKRLIVDVIRFQPGETLTEILETPATSEQEAEHQRAMQRRAIRDAKTPDKMKKSKSVKEDSNLTLQEKKEKIQTGLKKLTELGTVDPKNKYQELINDIARDIRNQRRYRQRRKAELVKLQQTYAALNSKATFYGEQVDYYKSYIKTCLDNLASKGKVSKKPREMKGKKSKKISLKYTAARLHEKGVLLEIEDLQVNQFKNVIFEISPTEEVGDFEVKAKFMGVQMETFMLHYQDLLQLQYEGVAVMKLFDRAKVNVNLLIFLLNKKFYGK
B3: IQGAP1 GRD1-RGCT wild type (aa 877-1558) (domain or fragment)
chain: DQSDQDFQEELDLMKMREEVITLIRSNQQLENDLNLMDIKIGLLVKNKITLQDVVSHSKKLTKKNKEQLSDMMMINKQKGGLKALSKEKREKLEAYQHLFYLLQTNPTYLAKLIFQMPQNKSTKFMDSVIFTLYNYASNQREEYLLLRLFKTALQEEIKSKVDQIQEIVTGNPTVIKMVVSFNRGARGQNALRQILAPVVKEIMDDKSLNIKTDPVDIYKSWVNQMESQTGEASKLPYDVTPEQALAHEEVKTRLDSSIRNMRAVTDKFLSAIVSSVDKIPYGMRFIAKVLKDSLHEKFPDAGEDELLKIIGNLLYYRYMNPAIVAPDAFDIIDLSAGGQLTTDQRRNLGSIAKMLQHAASNKMFLGDNAHLSIINEYLSQSYQKFRRFFQTACDVPELQDKFNVDEYSDLVTLTKPVIYISIGEIINTHTLLLDHQDAIAPEHNDPIHELLDDLGEVPTIESLIGESSGNLNDPNKEALAKTEVSLTLTNKFDVPGDENAEMDARTILLNTKRLIVDVIRFQPGETLTEILETPATSEQEAEHQRAMQRRAIRDAKTPDKMKKSKSVKEDSNLTLQEKKEKIQTGLKKLTELGTVDPKNKYQELINDIARDIRNQRRYRQRRKAELVKLQQTYAALNSKATFYGEQVDYYKSYIKTCLDNLASKGKVSKKPREMKGKKSKK
B4: IQGAP1 GRD1-RGCT S1441E (aa 877-1558) (domain or fragment)
chain: B3 chain with S565E
B5: IQGAP1 GRD1-RGCT S1443E (aa 877-1558) (domain or fragment)
chain: B3 chain with S567E

Legend:
[1] = target: B4; test: mGppNHp-bound CDC42
[2] = target: B5; test: mGppNHp-bound CDC42
CDC42 Q61L = CDC42 Q61L (human, UniProt P60953 1-178, Q61L); test: tGppNHp-bound CDC42 Q61L
Sequence of CDC42 Q61L (P60953 1-178 Q61L): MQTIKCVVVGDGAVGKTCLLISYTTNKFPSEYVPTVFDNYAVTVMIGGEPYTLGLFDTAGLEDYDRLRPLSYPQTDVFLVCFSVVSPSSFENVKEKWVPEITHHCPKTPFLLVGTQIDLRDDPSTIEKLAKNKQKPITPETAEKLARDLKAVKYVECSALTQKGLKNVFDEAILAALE

CDC42 (aa 1-178) = target: B1; test: mGppNHp-bound CDC42
Sequence of CDC42 (aa 1-178) (P60953 1-178): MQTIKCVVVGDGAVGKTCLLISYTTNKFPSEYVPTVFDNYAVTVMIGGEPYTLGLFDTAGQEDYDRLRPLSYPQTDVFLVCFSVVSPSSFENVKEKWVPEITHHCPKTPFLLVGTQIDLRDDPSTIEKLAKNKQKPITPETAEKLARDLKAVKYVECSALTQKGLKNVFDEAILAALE

RAC1 (aa 1-179) = RAC1 (aa 1-179) (human, UniProt P63000 1-179); test: mGppNHp-bound RAC1

Binder	koff [1] [s⁻¹]	koff [2] [s⁻¹]	koff (CDC42 Q61L) [s⁻¹]	koff (CDC42 (aa 1-178)) [s⁻¹]	koff (RAC1 (aa 1-179)) [s⁻¹]
B1	1.83	2.32	–	–	–
B2	–	–	0.073	0.39	0.66
B3	–	–	–	2.23	2.78
B4	–	–	–	–	2.71
B5	–	–	–	–	2.82
